Assay results: doi:10.1101/2024.08.14.607909 (bioRxiv, 2024)

Assays:
[1] = biological target: the molecule itself; assay: SEC-SAXS
[2] = biological target: the molecule itself; assay: crystal structure

B1: Δ1-24_PTX3 (PTX3 truncation mutant with residues 1-24 of the mature protein deleted) (domain or fragment, human)
chain: ELEDPTPCACGQEHSEWDKLFIMLENSQMRERMLLQATDDVLRGELQRLREELGRLAESLARPCAPGAPAEARLTSALDELLQATRDAGRRLARMEGAEAQRPEEAGRALAAVLEELRQTRADLHAVQGWAARSWLPAGCETAILFPMRSKKIFGSVHPVRPMRLESFSACIWVKATDVLNKTILFSYGTKRNPYEIQLYLSYQSIVFVVGGEENKLVAEAMVSLGRWTHLCGTWNSEEGLTSLWVNGELAATTVEMATGHIVPEGGILQIGQEKNGCCVGGGFDETLAFSGRLTGFNIWDSVLSNEEIRETGGAESCHIRGNIVGWGVTEIQPHGGAQYVS
modifications: N-linked glycan at N220
binding result [1]: binds

B2: C-terminal pentraxin domain of human PTX3 (domain or fragment)
chain: ELEGCETAILFPMRSKKIFGSVHPVRPMRLESFSACIWVKATDVLNKTILFSYGTKRNPYEIQLYLSYQSIVFVVGGEENKLVAEAMVSLGRWTHLCGTWNSEEGLTSLWVNGELAATTVEMATGHIVPEGGILQIGQEKNGCCVGGGFDETLAFSGRLTGFNIWDSVLSNEEIRETGGAESCHIRGNIVGWGVTEIQPHGGAQYVS
modifications: N-linked glycan at N220
binding result [2]: binds
